Measured values reported in patent publication US20140206607A1 (INDIANA UNIVERSITY RESEARCH AND TECHNOLOGY, published 2014).
Numbered stars: 1 amine (or outer) side, 2 acyl side, 3 side chain; on linkers, the order of the positions; unused ones are H or OH. Square brackets hold non-standard residues; d marks the D form. Primed or numbered codes have the meaning given here. Side chains are listed from the residue outwards. Ends that are not written are not given here. * marks the point of attachment. 40K‑TE PEG = 40 kDa PEG covalently bound via thioether, formed by reaction of the free thiol of the peptide (Cys side chain) with an iodoacetic-functionalized PEG; 20K‑TE PEG″ = 20 kDa PEG attached via a thioether, formed by reacting the free thiol of the peptide with an iodoacetic-functionalized PEG; 12K‑ME PEG = 12 kDa PEG bound via maleimido-thioether; γGlu = O=C(O)[C@H](CCC(=O)[*:2])N[*:1]; Palmitoyl = CCCCCCCCCCCCCCCC(=O)*; EC16 = not defined here; Aib = CC(C)(N)C(=O)O

Columns and labels:
Assay in all cases: cell-based or functional assay
GLP-1 receptor = GLP-1 receptor (UniProt P43220 24-463, limits assumed)
glucagon receptor = glucagon receptor (UniProt P47871 26-477, limits assumed)
Sequence of glucagon receptor (P47871 26-477 limits assumed): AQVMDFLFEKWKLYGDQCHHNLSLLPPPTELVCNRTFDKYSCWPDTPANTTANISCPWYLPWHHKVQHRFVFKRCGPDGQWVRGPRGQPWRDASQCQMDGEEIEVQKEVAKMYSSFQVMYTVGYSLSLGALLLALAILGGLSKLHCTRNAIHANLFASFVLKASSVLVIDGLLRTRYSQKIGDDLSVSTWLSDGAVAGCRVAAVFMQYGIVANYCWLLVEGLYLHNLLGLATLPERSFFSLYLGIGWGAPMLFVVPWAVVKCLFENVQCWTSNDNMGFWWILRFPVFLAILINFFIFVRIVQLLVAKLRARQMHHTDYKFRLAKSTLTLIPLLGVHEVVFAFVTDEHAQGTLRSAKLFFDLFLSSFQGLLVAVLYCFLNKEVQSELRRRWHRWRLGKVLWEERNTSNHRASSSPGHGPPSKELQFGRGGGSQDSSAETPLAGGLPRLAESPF

GIP receptor = molecular target: T1, GIP receptor (UniProt P48546 22-466)
T1 sequence (looked up): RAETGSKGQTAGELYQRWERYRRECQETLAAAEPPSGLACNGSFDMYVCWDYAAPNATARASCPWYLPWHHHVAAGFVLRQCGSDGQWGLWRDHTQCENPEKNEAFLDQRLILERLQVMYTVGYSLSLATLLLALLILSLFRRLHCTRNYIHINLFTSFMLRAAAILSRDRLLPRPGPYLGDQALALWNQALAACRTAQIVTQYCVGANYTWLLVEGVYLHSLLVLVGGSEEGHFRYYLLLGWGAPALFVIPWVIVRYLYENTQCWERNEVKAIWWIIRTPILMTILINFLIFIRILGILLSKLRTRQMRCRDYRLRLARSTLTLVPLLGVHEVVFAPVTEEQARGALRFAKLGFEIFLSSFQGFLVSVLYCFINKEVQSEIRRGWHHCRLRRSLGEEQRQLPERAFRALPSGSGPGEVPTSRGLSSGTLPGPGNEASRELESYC

Row | Binder | EC50 (nM) at GLP-1 receptor (GLP-1 receptor) | EC50 (nM) at glucagon receptor (glucagon receptor) | EC50 (nM) at GIP receptor (GIP receptor)
1 | H[Aib]QGTFTSDYSKYLDEKRA[Aib]EFV[Aib]WLLC(40K‑TE PEG)T-NH2 [peptide of SEQ ID NO: 42] | 0.117 nM | 1.01 nM | 
2 | H[dS]QGTFTSDK(EDTA amide)SKYLDERAAQDFVQWLLDGGPSSGAPPPS-NH2 [peptide of SEQ ID NO: 55] | 0.108 nM | 4.34 nM | 
3 | H[Aib]QGTFTSDYSKYLDEK[Aib]AKEFVC(40K‑TE PEG)WLLDT-NH2 [peptide of SEQ ID NO: 52] | 0.054 nM | 4.5 nM | 
4 | H[Aib]QGTFTSDYSKYLDEKRA[Aib]EFVC(40K‑TE PEG)WLL[Aib]T-NH2 [peptide of SEQ ID NO: 41] | 0.074 nM | 0.309 nM | 
5 | H[dS]QGTFTSDK([γGlu-Palmitoyl])SKYLDEQAAKEFIC(12K‑ME PEG)WLLDT-NH2 [peptide of SEQ ID NO: 43] | 0.011 nM | 0.02 nM | 
6 | H[Aib]QGTFTSDYSKYLD[Aib]KRAKEFVQWLLDTC(40K‑TE PEG)-NH2 [peptide of SEQ ID NO: 40] | 0.653 nM | 1.19 nM | 
7 | H[Aib]QGTFTSDK(Palmitoyl)SKYLDSRRA[Aib]DFVQWLMNT-NH2 (N-terminus assumed; SMILES CCCCCCCCCCCCCCCC(=O)NCCCC[C@H](NC(=O)[C@H](CC(=O)O)NC(=O)[C@H](CO)NC(=O)[C@@H](NC(=O)[C@H](Cc1ccccc1)NC(=O)[C@@H](NC(=O)CNC(=O)[C@H](CCC(N)=O)NC(=O)C(C)(C)NC(=O)[C@@H](N)Cc1c[nH]cn1)[C@@H](C)O)[C@@H](C)O)C(=O)N[C@@H](CO)C(=O)N[C@@H](CCCCN)C(=O)N[C@@H](Cc1ccc(O)cc1)C(=O)N[C@@H](CC(C)C)C(=O)N[C@@H](CC(=O)O)C(=O)N[C@@H](CO)C(=O)N[C@@H](CCCNC(=N)N)C(=O)N[C@@H](CCCNC(=N)N)C(=O)N[C@@H](C)C(=O)NC(C)(C)C(=O)N[C@@H](CC(=O)O)C(=O)N[C@@H](Cc1ccccc1)C(=O)N[C@H](C(=O)N[C@@H](CCC(N)=O)C(=O)N[C@@H](Cc1c[nH]c2ccccc12)C(=O)N[C@@H](CC(C)C)C(=O)N[C@@H](CCSC)C(=O)N[C@@H](CC(N)=O)C(=O)N[C@H](C(N)=O)[C@@H](C)O)C(C)C) [peptide of SEQ ID NO: 58] | 0.025 nM | 0.09 nM | 35.7 nM
8 | HXQGTFTSDKSKYLDERAAQDFVQWLMDT (Aib at 2; Lys 10 acylated, printed K(γEyEC16); C-terminal amide) [peptide of SEQ ID NO: 61] | 0.004 nM | 0.009 nM | 0.676 nM
9 | H[Aib]QGTFTSDYSKYLD[Aib]KRAKEFVQWLLC(40K‑TE PEG)T-OH [peptide of SEQ ID NO: 39] | 1.28 nM | 0.852 nM | 
10 | H[Aib]QGTFTSDKSKYLDERRA[Aib]DFVQWLMNT-NH2 (not fully specified (residue 10); printed as HaibQGTFTSDK(C16 acyl)SKYLDERRAaibDFVQWLMNT-amide) [peptide of SEQ ID NO: 59] | 0.01 nM | 0.051 nM | 7.48 nM
11 | H[Aib]QGTFTSDYSKYLD[Aib]KRA[Aib]EFVC(40K‑TE PEG)WLLDT-NH2 [peptide of SEQ ID NO: 38] | 0.31 nM | 0.141 nM | 
12 | H[Aib]QGTFTSDYSKYLDEKRA[Aib]DFVC(40K‑TE PEG)WLLDT-NH2 [peptide of SEQ ID NO: 54] | 0.097 nM | 0.939 nM | 
13 | H[Aib]QGTFTSDYSKYLDEKRA[Aib]EFVC(40K‑TE PEG)WLLDT-NH2 [peptide of SEQ ID NO: 13] | 0.067 nM | 0.141 nM | 
14 | H[dA]QGTFTSDK([γGlu-Palmitoyl])SKYLDERAAQDFVQWLLDT-NH2 (N-terminus assumed; SMILES CCCCCCCCCCCCCCCC(=O)N[C@@H](CCC(=O)NCCCC[C@H](NC(=O)[C@H](CC(=O)O)NC(=O)[C@H](CO)NC(=O)[C@@H](NC(=O)[C@H](Cc1ccccc1)NC(=O)[C@@H](NC(=O)CNC(=O)[C@H](CCC(N)=O)NC(=O)[C@@H](C)NC(=O)[C@@H](N)Cc1c[nH]cn1)[C@@H](C)O)[C@@H](C)O)C(=O)N[C@@H](CO)C(=O)N[C@@H](CCCCN)C(=O)N[C@@H](Cc1ccc(O)cc1)C(=O)N[C@@H](CC(C)C)C(=O)N[C@@H](CC(=O)O)C(=O)N[C@@H](CCC(=O)O)C(=O)N[C@@H](CCCNC(=N)N)C(=O)N[C@@H](C)C(=O)N[C@@H](C)C(=O)N[C@@H](CCC(N)=O)C(=O)N[C@@H](CC(=O)O)C(=O)N[C@@H](Cc1ccccc1)C(=O)N[C@H](C(=O)N[C@@H](CCC(N)=O)C(=O)N[C@@H](Cc1c[nH]c2ccccc12)C(=O)N[C@@H](CC(C)C)C(=O)N[C@@H](CC(C)C)C(=O)N[C@@H](CC(=O)O)C(=O)N[C@H](C(N)=O)[C@@H](C)O)C(C)C)C(=O)O) [peptide of SEQ ID NO: 56] | 0.02 nM | 0.006 nM | 1.64 nM
15 | H[Aib]QGTFTSDK([γGlu-Palmitoyl])SKYLD[Aib]RAAQDFVQWLMKTK[dE]-OH [peptide of SEQ ID NO: 60] | 0.033 nM | 4.6 nM | 147 nM
16 | H[dS]QGTFTSDK([γGlu-Palmitoyl])SKYLDEQAAKEFIC(20K‑TE PEG″)WLLDT-NH2 [peptide of SEQ ID NO: 44] | 0.017 nM | 0.023 nM | 
17 | H[dS]QGTFTSDK(benzoylpropionyl)SKYLDERAAQDFVQWLLDGGPSSGAPPPS-NH2 [peptide of SEQ ID NO: 49] | 0.01 nM | 0.063 nM | 
18 | H[dS]QGTFTSDK([γGlu-EC16])SKYLDERAAQDFVQWLLDGRG-NH2 (reading uncertain; also: printed as HsQGTFTSDK(gammaGlu-EC16)SKYLDERAAQDFVQWLLDGRG-amide) [peptide of SEQ ID NO: 19] | 0.002 nM | 0.004 nM | 0.812 nM
19 | H[dS]QGTFTSDK([γGlu-adamantylacetyl])SKYLDERAAQDFVQWLLDT-NH2 [peptide of SEQ ID NO: 48] | 0.039 nM | 0.026 nM | 
20 | H[Aib]QGTFTSDYSKYLDEKRA[Aib]EFVC(40K‑TE PEG)WLL[Aib]GGPSSGAPPPS-NH2 [peptide of SEQ ID NO: 51] | 0.062 nM | 2.04 nM | 
21 | H[Aib]QGTFTSDYSKYLDEKRA[Aib]EFVC(40K‑TE PEG)WLLDGGPSSGAPPPS-NH2 [peptide of SEQ ID NO: 47] | 0.052 nM | 0.591 nM | 
22 | H[Aib]QGTFTSDYSKYLDEKRA[Aib]EFVC(40K‑TE PEG)WLLDE-NH2 [peptide of SEQ ID NO: 16] | 0.487 nM | 0.563 nM | 465 nM
23 | H[Aib]QGTFTSDYSKYLDEKRA[Aib]EFVC(40K‑TE PEG)WLLDT-OH [peptide of SEQ ID NO: 45] | 1.44 nM | 0.651 nM | 
24 | H[Aib]QGTFTSDYSKYLD[Aib]KRA[Aib]EFVC(40K‑TE PEG)WLLDGGPSSGAPPPS-NH2 [peptide of SEQ ID NO: 46] | 0.136 nM | 0.227 nM | 
